Our source for the fold binding to H4K20R nucleosomes relative to WT nucleosomes and fold binding to H4K20R nucleosomes compared with WT nucleosomes values is publication PMC11216177.

This experiment concerns the target H4K20R recombinant nucleosomes containing FLAG-tagged H2A and H4K20R. The experiment can be described thus: pull-down.

B1: Set8 (enzyme)
chain: MIMVRRRQRPAKEAASSSSGGASSGSGIPVDQALPLNVAGNLLEDQYFASPKRKDCRLMKVTQNGQLPEATMMAHNKDNKAGRTIGVPLATRSQTRTIENFFKANAAAKDSQKTIHTEEQLNLGNQELKLDDEELNGQIKLDDEVLKLADKQINENLPFADEVDAKAEQKLMDEELQQVVEELLFDGSSRASSNSPFYQHDMDVMQEIQQTPEIPHIKKVTEPLEGLGSLADFQTHRSALRDSHSSTHSSSTDNIFLQEPVLTLDIDRTPTKASSIKINRSFELAGAVFSSPPSVLNACLNGRFNQIVSLNGQKEALDLPHFDLDQHDSSSCDSGVACGLTANTESPAGQPRRRKPATPHRILCPSPIKTALKVTGGICKVGSADPLSPRKSPRKLPTTTAAVAACKSRRRLNQPKPQAPYQPQLQKPPSQQQQQQQDDIVVVLDDDDDEGDDEDDVRALIKAAEERENQNKAPATANSNKAGMKTMLKPAPVKSKTKSKGPTKGQPPLPLAATNGNREMTDFFPVRRSVRKTKTAVKEEWMRGLEQAVLEERCDGLQVRHFMGKGRGVVADRPFKRNEFVVEYVGDLISIGEAAEREKRYALDENAGCYMYYFKHKSQQYCIDATVDTGKLGRLINHSRAGNLMTKVVLIKQRPHLVLLAKDDIEPGEELTYDYGDRSKESLLHHPWLAF
As to B1, the fold binding to H4K20R nucleosomes relative to WT nucleosomes was 14.5 fold.

B2: GFP-L(3)mbt (natural protein)
chain: MMALKMLYRGPSSRLENLIEKIQATKEITNNDMYSTHTSSSYSPSISDGTMTPNSHHLIGAPTAAGQEDHPTEGKINGGADGEDLPKPKRLPHFHHHHHHHYHHQQALKIANKLRKINKEAKMGATAGGGATGAASKFDKLTGEGIKSRGDGSYQCQFCEKTFPRLGYLKHHVQSHAEHLPFKCEYCSKLFKHKRSRDRHKKLHTNERNYKCPHCEAAFSRSDHLKIHMKTHDIQKPFQCSMCNRGYNTAAALTSHMQKHKKNAAILAAGGNPNALNYSPRSTGSASASVSSNGSLQKRRYALALASDSSPSRMDFPKRSRSNHVGGTTTTATPTPLLRCSYCPKVTEFSSLEQLNAHLQSVHEQPQTQAVKTPVQEGEGFQLSCEYCTMKFGNIAGLFQHMRSTHMDRLSSPNSYYEHFNRLATAGTFSPRLALDLPKIKPDLGSPERESRPAEDDLPTDLSNNKRRPLTPNPQAQTPLAPPSAPPGVFFCNQCNAGLPDFESFRNHLKSHIAEGMQLVCPHCGMSLPEQSEFERHVVGHFLITGSEFNCSSSCGKSFAKSEDLQQHLLSEHVLTLLKCSLCSELCESRMAMQLHLACAHSQETKLLRCSACLELFRSDAEFHVHVKTRHQLGGHPTLGATSSAPTNPLQCMFCRAVCSSELEMHFHLAAHARQFRCPSCPETFHVEFLLDRHMQSQHGGVKDKEANSPNMGSLYVNALLPPLAAAAAAAAATNNNSSIIDYNVAFKGLFGGASGGAGSGGGGAQSGGAPPSANKFYSPLQVDTNALKAQTSPHPALMYGLSQRYLMEMYAAKSTSPSGNEGVGNSQPPAPQATAPPPPPNASTATFSCGMCERQDLRSEAELHSHRKLAHNLKTGVSLRCAYCAGNFKSRAELEQHMKSCHNSTGKHKCLICDEVFPSPAILAEHKLQHSKVGQSGKCSHCGQPLEDVAAFRAHLSEHGSDGASLPLACICCRQTLHSEFELSLHAKFHTKSSSSGGSLQEPVCALCLEPLPDATEGPAKLCDKCCRKHNLNGKRGKHSEPATSLPAPPSAFVENRCNLCKMILPHAQKLQEHLVEHTFAGTEQRGFNCYICSAVFTAPGGLLNHMGEHGAHSRPYDCNLCPEKFFFRAELEHHQRGHELRPQARPPAAKVEVPSIRNTSPGQSPVRSPTIVKQELYETDTVESAGVEDEPENHPDEEEYIEVEQMPHETRPSGIGSQLERSTSSA
Turning to B2, the fold binding to H4K20R nucleosomes compared with WT nucleosomes came out at 1.8 fold.
